# According to US10738094B2, “Peptides and combination of peptides for use in immunotherapy against ovarian cancer and other cancers” (immatics biotechnologies GmbH, priority 2015, dated 2020):
# Target: HLA-A*02:01 (Homo sapiens, UniProt P04439, D140Y/D185E/D98H/E176V/E277Q/G131W/G231S/I119V/I121R/I166T/I218V/L300P/L318F/N151K/N90K/P208A/P217A/Q86G/Q94H/R138H/R169H/T345S)
# Assay: MHC binding assay (UV-ligand exchange, beta2m ELISA)
# Details: binding to HLA-A*02:01 ranged by peptide exchange yield (UV-ligand exchange, β2m ELISA)
# Summary of the method: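 UV-cleavable ligand in peptide-MHC complexes was exchanged for test peptide. Exchange yield came from an ELISA on streptavidin-captured complexes diluted 100 fold, detecting β2m with HRP anti-β2m (2 ug/ml, 1 h, 37° C.), TMB, A450.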
row,Peptide exchange,Substance
1,“+++” (≥50 = +++),160 (FLFDEEIEQI; listed as Homo sapiens) [compound 160]
2,“+++” (≥50 = +++),161 (ALLEGVNTV; listed as Homo sapiens) [compound 161]
3,“+++” (≥50 = +++),162 (YQQAQVPSV; listed as Homo sapiens) [compound 162]
4,“+++” (≥50 = +++),163 (ALDEMGDLLQL; listed as Homo sapiens) [compound 163]
5,“+++” (≥50 = +++),164 (ALLPQPKNLTV; listed as Homo sapiens) [compound 164]
6,“+++” (≥50 = +++),165 (SLLDEIRAV; listed as Homo sapiens) [compound 165]
7,“+++” (≥50 = +++),167 (KVLEVTEEFGV; listed as Homo sapiens) [compound 167]
8,“++++” (≥75% = ++++),168 (KILDADIQL; listed as Homo sapiens) [compound 168]
9,“+++” (≥50 = +++),169 (NLPEYLPFV; listed as Homo sapiens) [compound 169]
10,“+++” (≥50 = +++),170 (RLQETLSAA; listed as Homo sapiens) [compound 170]
11,“+++” (≥50 = +++),171 (LLLPLQILL; listed as Homo sapiens) [compound 171]
12,“++” (≥20% = ++),172 (VLYSYTIITV; listed as Homo sapiens) [compound 172]
13,“+++” (≥50 = +++),173 (LLDSASAGLYL; listed as Homo sapiens) [compound 173]
14,“+++” (≥50 = +++),174 (ALAQYLITA; listed as Homo sapiens) [compound 174]
15,“+++” (≥50 = +++),175 (YLFENISQL; listed as Homo sapiens) [compound 175]
16,“++” (≥20% = ++),176 (YLMEGSYNKVFL; listed as Homo sapiens) [compound 176]
17,“++++” (≥75% = ++++),177 (YLLPEEYTSTL; listed as Homo sapiens) [compound 177]
18,“++++” (≥75% = ++++),178 (ALTEIAFVV; listed as Homo sapiens) [compound 178]
19,“+++” (≥50 = +++),179 (KVLNELYTV; listed as Homo sapiens) [compound 179]
20,“++” (≥20% = ++),180 (FQIDPHSGLVTV; listed as Homo sapiens) [compound 180]
21,“+++” (≥50 = +++),181 (LLWAGTAFQV; listed as Homo sapiens) [compound 181]
22,“+++” (≥50 = +++),182 (MLLEAPGIFL; listed as Homo sapiens) [compound 182]
23,“+++” (≥50 = +++),183 (FGLDLVTEL; listed as Homo sapiens) [compound 183]
24,“+++” (≥50 = +++),184 (YLMDINGKMWL; listed as Homo sapiens) [compound 184]
25,“++” (≥20% = ++),185 (FLIDDKGYTL; listed as Homo sapiens) [compound 185]
26,“++” (≥20% = ++),186 (TLFFQQNAL; listed as Homo sapiens) [compound 186]

row,Peptide exchange,Substance
1,“+++” (≥50 = +++),187 (RQISIRGIVGV; listed as Homo sapiens) [compound 187]
2,“+++” (≥50 = +++),188 (GLFPVTPEAV; listed as Homo sapiens) [compound 188]
3,“+++” (≥50 = +++),189 (ALQRKLPYV; listed as Homo sapiens) [compound 189]
4,“+++” (≥50 = +++),190 (FLSSLTETI; listed as Homo sapiens) [compound 190]
5,“++” (≥20% = ++),191 (LLQEGQALEYV; listed as Homo sapiens) [compound 191]
6,“+++” (≥50 = +++),192 (KMLDGASFTL; listed as Homo sapiens) [compound 192]
7,“+++” (≥50 = +++),193 (QLLDADGFLNV; listed as Homo sapiens) [compound 193]
8,“+++” (≥50 = +++),194 (ALPLFVITV; listed as Homo sapiens) [compound 194]
9,“+++” (≥50 = +++),195 (GLFADLLPRL; listed as Homo sapiens) [compound 195]
10,“++++” (≥75% = ++++),196 (YLYSVEIKL; listed as Homo sapiens) [compound 196]
11,“++” (≥20% = ++),197 (ALGPEGGRV; listed as Homo sapiens) [compound 197]
12,“+++” (≥50 = +++),198 (KTINKVPTV; listed as Homo sapiens) [compound 198]
13,“+++” (≥50 = +++),200 (LLFGSVQEV; listed as Homo sapiens) [compound 200]
14,“+++” (≥50 = +++),201 (RLVDYLEGI; listed as Homo sapiens) [compound 201]
15,“+++” (≥50 = +++),202 (ALLDQQGSRWTL; listed as Homo sapiens) [compound 202]
16,“++” (≥20% = ++),204 (KIAENVEEV; listed as Homo sapiens) [compound 204]
17,“+++” (≥50 = +++),205 (SLYPGTETMGL; listed as Homo sapiens) [compound 205]
18,“+++” (≥50 = +++),206 (VLQEGKLQKLAQL; listed as Homo sapiens) [compound 206]
19,“++” (≥20% = ++),207 (GLTSTNAEV; listed as Homo sapiens) [compound 207]
20,“+++” (≥50 = +++),208 (KISPVTFSV; listed as Homo sapiens) [compound 208]
21,“++” (≥20% = ++),209 (KLIESKHEV; listed as Homo sapiens) [compound 209]
22,“++” (≥20% = ++),210 (LLLNAVLTV; listed as Homo sapiens) [compound 210]
23,“++” (≥20% = ++),211 (LLWPGAALL; listed as Homo sapiens) [compound 211]
24,“++” (≥20% = ++),212 (ALWDQDNLSV; listed as Homo sapiens) [compound 212]
25,“+++” (≥50 = +++),214 (FLLDLDPLLL; listed as Homo sapiens) [compound 214]
26,“+++” (≥50 = +++),215 (QLINHLHAV; listed as Homo sapiens) [compound 215]

row,Peptide exchange,Substance
1,“+++” (≥50 = +++),216 (NLWEDPYYL; listed as Homo sapiens) [compound 216]
2,“++” (≥20% = ++),217 (ALIHPVSTV; listed as Homo sapiens) [compound 217]
3,“++” (≥20% = ++),218 (SALEELVNV; listed as Homo sapiens) [compound 218]
4,“+++” (≥50 = +++),219 (KLSDIGITV; listed as Homo sapiens) [compound 219]
5,“++” (≥20% = ++),220 (LLQKFVPEI; listed as Homo sapiens) [compound 220]
6,“++” (≥20% = ++),221 (ALYEEGLLL; listed as Homo sapiens) [compound 221]
7,“++” (≥20% = ++),222 (NLIENVQRL; listed as Homo sapiens) [compound 222]
8,“+++” (≥50 = +++),223 (ALLENIALYL; listed as Homo sapiens) [compound 223]
9,“+++” (≥50 = +++),224 (TLIDAQWVL; listed as Homo sapiens) [compound 224]
10,“+++” (≥50 = +++),225 (SLLKVLPAL; listed as Homo sapiens) [compound 225]
11,“++” (≥20% = ++),226 (MLYVVPIYL; listed as Homo sapiens) [compound 226]
12,“++” (≥20% = ++),227 (ALMNTLLYL; listed as Homo sapiens) [compound 227]
13,“++” (≥20% = ++),228 (AMQEYIAVV; listed as Homo sapiens) [compound 228]
14,“++” (≥20% = ++),229 (RLPGPLGTV; listed as Homo sapiens) [compound 229]
15,“+” (≥10% = +),230 (ILVDWLVEV; listed as Homo sapiens) [compound 230]
16,“++” (≥20% = ++),231 (FLSPQQPPLLL; listed as Homo sapiens) [compound 231]
17,“++” (≥20% = ++),232 (ALLEAQDVELYL; listed as Homo sapiens) [compound 232]
18,“++” (≥20% = ++),233 (VLSETLYEL; listed as Homo sapiens) [compound 233]
19,“++” (≥20% = ++),234 (ALMEDTGRQML; listed as Homo sapiens) [compound 234]
20,“++++” (≥75% = ++++),235 (YLNDLHEVLL; listed as Homo sapiens) [compound 235]
21,“+++” (≥50 = +++),236 (GLLEAKVSL; listed as Homo sapiens) [compound 236]
22,“++++” (≥75% = ++++),237 (ALLEASGTLLL; listed as Homo sapiens) [compound 237]
23,“+++” (≥50 = +++),238 (YLISFQTHI; listed as Homo sapiens) [compound 238]
24,“+++” (≥50 = +++),239 (AAFAGKLLSV; listed as Homo sapiens) [compound 239]
25,“+++” (≥50 = +++),240 (ILLEQAFYL; listed as Homo sapiens) [compound 240]
26,“+++” (≥50 = +++),241 (SLVEVNPAYSV; listed as Homo sapiens) [compound 241]
